One substance from patent publication US20240398929A1 can be followed below.

Experiment [1] deals with GP[change] with 12D insertion after residue A309 (Ebola virus).
In experiment [2] the target is GP[change] with 8D insertion after residue A309 (Ebola virus).

As to mAb114 (antibody), the fold increase in binding against WT-GPΔmucin in experiment [1] and in experiment [2] was 2 fold each time.
